The text below walks through data of patent US20200087373A1 (UNIVERSITY OF COPENHAGEN, published 2020).

Like-named read-outs stand apart in the source and are kept apart here. Numbered stars: 1 amine (or outer) side, 2 acyl side, 3 side chain; on linkers, the order of the positions; unused ones are H or OH. Side chains are listed from the residue outwards. Ends that are not written are not given here. * marks the point of attachment. C16 diacid = O=C(O)CCCCCCCCCCCCCCC(=O)*; γGlu = O=C(O)[C@H](CCC(=O)[*:2])N[*:1]; Stearoyl = CCCCCCCCCCCCCCCCCC(=O)*; Palmitoyl = CCCCCCCCCCCCCCCC(=O)*; Myristoyl = CCCCCCCCCCCCCC(=O)*; Lauroyl = CCCCCCCCCCCC(=O)*

Broadly, the IC50 is the concentration needed to halve the response being measured. Higher therefore signals a need for much substance. One may read the Ki as the equilibrium dissociation constant of an inhibitor or competing ligand from its target. A low value points to higher affinity.

Test [1] has as its target T1, human GIP receptor (human, UniProt P48546 22-466).
T1 construct: whole, on cells; Transiently transfected COS-7 cells expressing the human GIP receptor; also called hGIPR
T1 sequence (looked up): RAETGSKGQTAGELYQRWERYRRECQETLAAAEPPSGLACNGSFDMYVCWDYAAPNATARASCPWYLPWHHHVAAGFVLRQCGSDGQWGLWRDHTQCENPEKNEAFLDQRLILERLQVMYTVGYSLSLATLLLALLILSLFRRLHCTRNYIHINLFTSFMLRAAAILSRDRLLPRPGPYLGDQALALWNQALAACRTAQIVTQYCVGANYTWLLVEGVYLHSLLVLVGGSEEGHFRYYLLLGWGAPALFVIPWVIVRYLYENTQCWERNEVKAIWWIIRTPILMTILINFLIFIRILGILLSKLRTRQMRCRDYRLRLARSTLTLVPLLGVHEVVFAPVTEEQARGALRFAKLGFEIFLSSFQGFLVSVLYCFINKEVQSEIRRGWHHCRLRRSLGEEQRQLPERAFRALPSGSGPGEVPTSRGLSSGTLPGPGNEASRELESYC
Nature of the test: 125I-hGIP(1-42) competition binding, COS-7 cells expressing human GIPR.
Procedure: (§1) After incubation, the cells were washed twice in ice-cold binding buffer (+/−2% HSA) and lysed using 200 mM NaOH with 1% SDS for 30 min. Nonspecific binding was determined as the binding of radioactive ligand to untransfected cells.

The target of test [2] is T1, human GIP receptor. Nature of the test: 125I-hGIP competition binding on hGIPR COS-7 cells; fold in affinity, paired, reference taken as GIP(3-30)NH2.
Procedure: as §1
In test [3] the target is T1, human GIP receptor. The experiment in a line: cell-based or functional assay.
The target in test [4] is T1, human GIP receptor. The experiment in a line: cell-based or functional assay. The source holds these as a separate data set.
For test [5], the target named is T1, human GIP receptor. The experiment in a line: 125I-hGIP(1-42) competition binding, COS-7 cells expressing human GIPR, with 2% HSA.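 Further: nonspecific signal taken as radioligand bound to untransfected cells.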
Procedure: as §1
The target of test [6] is T1, human GIP receptor. Nature of the test: 125I-hGIP(1-42) competition binding, COS-7 cells expressing human GIPR, without HSA.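 Further: nonspecific binding defined as radioligand bound to cells lacking the transfected receptor.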
Procedure: as §1
Test [7] deals with T1, human GIP receptor. Nature of the test: ratio of Ki with 2% HSA to Ki without HSA, 125I-hGIP competition binding on hGIPR COS-7 cells.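 Further: nonspecific binding was defined as radioligand signal on cells lacking the receptor transfection, with cell lysates measured after washes.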
Procedure: as §1
Test [8] deals with T1, human GIP receptor. Nature of the test: cell-based or functional assay. This is another data set of the same source.

For Lauroyl-EGTFISDYSIAMDKIHQQDFVNWLLAQK-NH2 [AT101 [hGIP(3-30)NH2-C12/3]], in the test with human GIP receptor [1], the IC50 was 9.9 nM. Further, the “fold (paired)” value with human GIP receptor [2] was determined as 0.7 fold.

B1: AT107 [hGIP(3-30)NH2[T5W; D15E; H18A]-C16/16] (peptide)
peptide: EGWFISDYSIAMEK(Palmitoyl)IAQQDFVNWLLAQK-NH2
modifications: N-terminus assumed
SMILES: CCCCCCCCCCCCCCCC(=O)NCCCC[C@H](NC(=O)[C@H](CCC(=O)O)NC(=O)[C@H](CCSC)NC(=O)[C@H](C)NC(=O)[C@@H](NC(=O)[C@H](CO)NC(=O)[C@H](Cc1ccc(O)cc1)NC(=O)[C@H](CC(=O)O)NC(=O)[C@H](CO)NC(=O)[C@@H](NC(=O)[C@H](Cc1ccccc1)NC(=O)[C@H](Cc1c[nH]c2ccccc12)NC(=O)CNC(=O)[C@@H](N)CCC(=O)O)[C@@H](C)CC)[C@@H](C)CC)C(=O)N[C@H](C(=O)N[C@@H](C)C(=O)N[C@@H](CCC(N)=O)C(=O)N[C@@H](CCC(N)=O)C(=O)N[C@@H](CC(=O)O)C(=O)N[C@@H](Cc1ccccc1)C(=O)N[C@H](C(=O)N[C@@H](CC(N)=O)C(=O)N[C@@H](Cc1c[nH]c2ccccc12)C(=O)N[C@@H](CC(C)C)C(=O)N[C@@H](CC(C)C)C(=O)N[C@@H](C)C(=O)N[C@@H](CCC(N)=O)C(=O)N[C@@H](CCCCN)C(N)=O)C(C)C)[C@@H](C)CC
For the molecule B1, in the test with human GIP receptor [3], the “cAMP - antagonisme IC50” value came out at 76.9 nM and the “cAMP - antagonisme fold (paired)” value amounted to 3.1 fold. Further, the IC50 with human GIP receptor [1] amounted to 5220 nM. Besides, the “fold (paired)” value in the test with human GIP receptor [2] was determined as 186 fold.

B2: AT131 [hGIP(3-30)NH2[D15E; H18A]-C16/16] (peptide)
peptide: EGTFISDYSIAMEK(Palmitoyl)IAQQDFVNWLLAQK-NH2
modifications: N-terminus assumed
SMILES: CCCCCCCCCCCCCCCC(=O)NCCCC[C@H](NC(=O)[C@H](CCC(=O)O)NC(=O)[C@H](CCSC)NC(=O)[C@H](C)NC(=O)[C@@H](NC(=O)[C@H](CO)NC(=O)[C@H](Cc1ccc(O)cc1)NC(=O)[C@H](CC(=O)O)NC(=O)[C@H](CO)NC(=O)[C@@H](NC(=O)[C@H](Cc1ccccc1)NC(=O)[C@@H](NC(=O)CNC(=O)[C@@H](N)CCC(=O)O)[C@@H](C)O)[C@@H](C)CC)[C@@H](C)CC)C(=O)N[C@H](C(=O)N[C@@H](C)C(=O)N[C@@H](CCC(N)=O)C(=O)N[C@@H](CCC(N)=O)C(=O)N[C@@H](CC(=O)O)C(=O)N[C@@H](Cc1ccccc1)C(=O)N[C@H](C(=O)N[C@@H](CC(N)=O)C(=O)N[C@@H](Cc1c[nH]c2ccccc12)C(=O)N[C@@H](CC(C)C)C(=O)N[C@@H](CC(C)C)C(=O)N[C@@H](C)C(=O)N[C@@H](CCC(N)=O)C(=O)N[C@@H](CCCCN)C(N)=O)C(C)C)[C@@H](C)CC
B2: in the test with human GIP receptor [3], the “cAMP - antagonisme IC50” value was found to be 65 nM and the “cAMP - antagonisme fold (paired)” value amounted to 1.1 fold. The IC50 with human GIP receptor [1] is 6510 nM. The “fold (paired)” value in the test with human GIP receptor [2] was 49 fold.
Consider Stearoyl-EGTFISDYSIAMDKIHQQDFVNWLLAQK-NH2 [AT113 [hGIP(3-30)NH2-C18/3]], for which the IC50 with human GIP receptor [1] worked out at 41400 nM. Besides, the “fold (paired)” value with human GIP receptor [2] stood at 16400 fold.
Consider EGTFISDYSIAMDK(Lauroyl)IHQQDFVNWLLAQK-NH2 [AT102 [hGIP(3-30)NH2-C12/16]], for which the half-maximal inhibitory concentration (IC50) with human GIP receptor [1] is 59.1 nM. Further, the “fold (paired)” value in the test with human GIP receptor [2] turned out to be 6.1 fold.

B3: AT109 (E3pGlu, C16 at position 16) (peptide)
peptide: EGTFISDYSIAMDKIHQQDFVNWLLAQK
modifications: pyroglutamic acid (pGlu) in place of Glu at position 3 in GIP numbering (residue 1 of the entry); C16 (palmitoyl) fatty acid on Lys at position 16 (residue 14 of the entry); C-terminal amide taken from the series hGIP(3-30)NH2
As for B3, in the test with human GIP receptor [3], the “cAMP - antagonisme fold (paired)” value turned out to be 8 fold. Moreover, in the test with human GIP receptor [1], the IC50 turned out to be 1580 nM. The “fold (paired)” value with human GIP receptor [2] was found to be 74 fold.
In the case of Myristoyl-EGTFISDYSIAMDKIHQQDFVNWLLAQK-NH2 [AT110 [hGIP(3-30)NH2-C14/3]], the IC50 in the test with human GIP receptor [1] worked out at 55 nM. In addition, the “fold (paired)” value with human GIP receptor [2] came to 5.2 fold.

B4: AT137 [hGIP(5-30)NH2-C16diacid/5] (peptide)
peptide: {C16 diacid}-TFISDYSIAMDKIHQQDFVNWLLAQK-NH2
SMILES: CC[C@H](C)[C@H](NC(=O)[C@H](CO)NC(=O)[C@H](Cc1ccc(O)cc1)NC(=O)[C@H](CC(=O)O)NC(=O)[C@H](CO)NC(=O)[C@@H](NC(=O)[C@H](Cc1ccccc1)NC(=O)[C@@H](NC(=O)CCCCCCCCCCCCCCC(=O)O)[C@@H](C)O)[C@@H](C)CC)C(=O)N[C@@H](C)C(=O)N[C@@H](CCSC)C(=O)N[C@@H](CC(=O)O)C(=O)N[C@@H](CCCCN)C(=O)N[C@H](C(=O)N[C@@H](Cc1c[nH]cn1)C(=O)N[C@@H](CCC(N)=O)C(=O)N[C@@H](CCC(N)=O)C(=O)N[C@@H](CC(=O)O)C(=O)N[C@@H](Cc1ccccc1)C(=O)N[C@H](C(=O)N[C@@H](CC(N)=O)C(=O)N[C@@H](Cc1c[nH]c2ccccc12)C(=O)N[C@@H](CC(C)C)C(=O)N[C@@H](CC(C)C)C(=O)N[C@@H](C)C(=O)N[C@@H](CCC(N)=O)C(=O)N[C@@H](CCCCN)C(N)=O)C(C)C)[C@@H](C)CC
On to B4, for which, in the test with human GIP receptor [4], the “cAMP accumulation Fold (fold change from GIP(5-30)NH2)” value came out at 3.7 fold, the “cAMP accumulation IC50” value came to 102 nM and the “cAMP accumulation logIC50” value is -6.99 log(M). Besides, the affinity with human GIP receptor [5], expressed as Ki, was 117 nM. Besides, the Ki with human GIP receptor [6] came out at 59.3 nM. Besides, the “Fold (Ki + HSA / Ki - HSA)” value with human GIP receptor [7] was found to be 2 fold.

B5: AT164 [hGIP(3-30)NH2[H18K]-C16/18+y-glutamic acid] (peptide)
peptide: EGTFISDYSIAMDKIK([γGlu-Palmitoyl])QQDFVNWLLAQK-NH2
modifications: N-terminus assumed
SMILES: CCCCCCCCCCCCCCCC(=O)N[C@@H](CCC(=O)NCCCC[C@H](NC(=O)[C@@H](NC(=O)[C@H](CCCCN)NC(=O)[C@H](CC(=O)O)NC(=O)[C@H](CCSC)NC(=O)[C@H](C)NC(=O)[C@@H](NC(=O)[C@H](CO)NC(=O)[C@H](Cc1ccc(O)cc1)NC(=O)[C@H](CC(=O)O)NC(=O)[C@H](CO)NC(=O)[C@@H](NC(=O)[C@H](Cc1ccccc1)NC(=O)[C@@H](NC(=O)CNC(=O)[C@@H](N)CCC(=O)O)[C@@H](C)O)[C@@H](C)CC)[C@@H](C)CC)[C@@H](C)CC)C(=O)N[C@@H](CCC(N)=O)C(=O)N[C@@H](CCC(N)=O)C(=O)N[C@@H](CC(=O)O)C(=O)N[C@@H](Cc1ccccc1)C(=O)N[C@H](C(=O)N[C@@H](CC(N)=O)C(=O)N[C@@H](Cc1c[nH]c2ccccc12)C(=O)N[C@@H](CC(C)C)C(=O)N[C@@H](CC(C)C)C(=O)N[C@@H](C)C(=O)N[C@@H](CCC(N)=O)C(=O)N[C@@H](CCCCN)C(N)=O)C(C)C)C(=O)O
Turning to B5, in the test with human GIP receptor [8], the “cAMP accumulation Fold change (from GIP(3-30)NH2)” value stood at 6.3 fold, the “cAMP accumulation IC50” value is 10.2 nM and the “cAMP accumulation logIC50” value was -7.99 log(M).
Regarding Palmitoyl-EGTFISDYSIAMDKIHQQDFVNWLLAQK-NH2 [AT104 [hGIP(3-30)NH2-C16/3]], the IC50 with human GIP receptor [1] was determined as 75 nM. Also, in the test with human GIP receptor [2], the “fold (paired)” value was 4.9 fold.
As for EGTFISDYSIAMDK(Palmitoyl)IHQQDFVNWLLAQK-NH2 [AT105 [hGIP(3-30)NH2-C16/16]], in the test with human GIP receptor [3], the “cAMP - antagonisme IC50” value came to 23.8 nM and the “cAMP - antagonisme fold (paired)” value worked out at 3.4 fold. The molecule further gave an IC50 with human GIP receptor [1] of 522 nM. Further, the “fold (paired)” value with human GIP receptor [2] is 34 fold.
Consider EGTFISDYSIAMDKIHQQDFVNWLLAQK-NH2 [hGIP(3-30)NH2], for which, in the test with human GIP receptor [8], the “cAMP accumulation IC50” value amounted to 64.6 nM and the “cAMP accumulation logIC50” value is -7.19 log(M).

B6: AT140 [hGIP(5-30)NH2-C16diacid/16] (peptide)
peptide: TFISDYSIAMDK(C16 diacid)IHQQDFVNWLLAQK-NH2
modifications: N-terminus assumed
SMILES: CC[C@H](C)[C@H](NC(=O)[C@H](CO)NC(=O)[C@H](Cc1ccc(O)cc1)NC(=O)[C@H](CC(=O)O)NC(=O)[C@H](CO)NC(=O)[C@@H](NC(=O)[C@H](Cc1ccccc1)NC(=O)[C@@H](N)[C@@H](C)O)[C@@H](C)CC)C(=O)N[C@@H](C)C(=O)N[C@@H](CCSC)C(=O)N[C@@H](CC(=O)O)C(=O)N[C@@H](CCCCNC(=O)CCCCCCCCCCCCCCC(=O)O)C(=O)N[C@H](C(=O)N[C@@H](Cc1c[nH]cn1)C(=O)N[C@@H](CCC(N)=O)C(=O)N[C@@H](CCC(N)=O)C(=O)N[C@@H](CC(=O)O)C(=O)N[C@@H](Cc1ccccc1)C(=O)N[C@H](C(=O)N[C@@H](CC(N)=O)C(=O)N[C@@H](Cc1c[nH]c2ccccc12)C(=O)N[C@@H](CC(C)C)C(=O)N[C@@H](CC(C)C)C(=O)N[C@@H](C)C(=O)N[C@@H](CCC(N)=O)C(=O)N[C@@H](CCCCN)C(N)=O)C(C)C)[C@@H](C)CC
notes: also called AT140 [hGIP(5-30)-C16-diacid/16]
Consider B6, for which, in the test with human GIP receptor [4], the “cAMP accumulation Fold (fold change from GIP(5-30)NH2)” value turned out to be 7.4 fold, the “cAMP accumulation IC50” value is 204 nM and the “cAMP accumulation logIC50” value was -6.69 log(M). For the same molecule, in the test with human GIP receptor [5], the Ki was 3280 nM. Also, the Ki in the test with human GIP receptor [6] was found to be 2160 nM. In the test with human GIP receptor [7], the “Fold (Ki + HSA / Ki - HSA)” value was 1.5 fold.
